Article PMC3303803, “Identification of the First Functional Toxin-Antitoxin System in Streptomyces” (PLoS ONE, 2012)

T1: YefMsl-YoeBsl antitoxin (untagged YefM of natural complex);YoeB-His6sl (toxin) (Streptomyces lividans 1326?;Streptomyces lividans 1326?), ORF:ca022027+Q9Z4V8
T1 sequence 1: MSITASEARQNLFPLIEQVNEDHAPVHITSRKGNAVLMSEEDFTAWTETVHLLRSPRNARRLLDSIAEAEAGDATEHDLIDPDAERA
T1 sequence 2: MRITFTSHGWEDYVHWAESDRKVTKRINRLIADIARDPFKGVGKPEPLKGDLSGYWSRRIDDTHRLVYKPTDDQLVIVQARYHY

T2: YefM-His6sl (antitoxin);YoeB-His6sl (toxin) (Streptomyces lividans 1326?;Streptomyces lividans 1326?), ORF:ca022027+Q9Z4V8
T2 sequence 1: T1 sequence 1
T2 sequence 2: T1 sequence 2

T3: S. lividans antitoxin YefM-His6sl (Streptomyces lividans, UniProt Q9Z4V7 1-87)
T3 construct: YefMsl, putative antitoxin of the yefM/yoeBsl operon of Streptomyces lividans 1326; identical to S. coelicolor SCO2235 (YefMsc); 9.7 kDa; Cloned with primers LS-005/LS-022 between NdeI and XhoI of pET22b; also called YefMsl; source: E. coli BL21 (DE3), pET22b-Anti, purified (NTA-Ni, dialysis); not shown: His6, C-terminal, kept
T3 sequence (looked up): T1 sequence 1

B1: S. lividans toxin YoeB-His6sl (natural protein, Streptomyces lividans, UniProt Q9Z4V8 1-84, looked up)
chain: T1 sequence 2
notes: also called YoeBsl; toxin-His6; not shown: His6, C-terminal, kept

Columns and labels:
[1] = system: T1, YefMsl-YoeBsl antitoxin (untagged YefM of natural complex);YoeB-His6sl (toxin) (Streptomyces lividans 1326?;Streptomyces lividans 1326?), ORF:ca022027+Q9Z4V8; assay: EMSA
[2] = system: T2, YefM-His6sl (antitoxin);YoeB-His6sl (toxin) (Streptomyces lividans 1326?;Streptomyces lividans 1326?), ORF:ca022027+Q9Z4V8; assay: EMSA
[3] = biological target: T3, S. lividans antitoxin YefM-His6sl; assay: native gel or EMSA; details: both partners purified

Row | Molecule | binding [1] | binding [2] | binding result [3]
1 | TTTTTTCATATGACCAGTGCCTCCCTTCCTCGGCTGGTACAAGATATCGTACGAGTCTGGGACGGTCCACCGGAAAGCGGGAGCGGTACGTCCCGGCGCCCGCACGCCGTTCCCCGGCTACGCTCAGCCCGTACGACCTTGATCCGACCGGGCCCACGTGCCCCGCAGCCCGACAGGAGGCCGAGAATTCAAAAAA (double strand) [TA promoter (yefM/yoeBsl intergenic region)] | binds | binds | 
2 | B1 |  |  | binds
